Assay results: patent publication US20230416709

Columns and labels:
Assay in all cases: cell_activity
[1] = test system: B2M_PPR(L)-FokI M50 (Flavobacterium okeanokoites (FokI domain)); conditions: Fn reporter HEK293T, paired with B2M_PPR(R)
[2] = test system: GFP_PPR(L)-FokI M50 (Flavobacterium okeanokoites (FokI domain)); conditions: Fn reporter HEK293T, paired with GFP_PPR(R)
[3] = test system: B2M_PPR(R)-FokI M50 (Flavobacterium okeanokoites (FokI domain)); conditions: Fn reporter HEK293T, paired with B2M_PPR(L)
[4] = test system: TALEN-A-FokI M47 (MBP fusion) (Flavobacterium okeanokoites (FokI domain)); conditions: E. coli B2P, 0.1 mM IPTG 15 min 37 C
[5] = test system: TALEN-A-FokI M50 (MBP fusion) (Flavobacterium okeanokoites (FokI domain)); conditions: E. coli B2P, 0.1 mM IPTG 15 min 37 C; 24% in second experiment (p75)
[6] = test system: TALEN-A-FokI M50(G473) (MBP fusion) R473G (Flavobacterium okeanokoites (FokI domain)); conditions: E. coli B2P; M50 24% in same experiment
[7] = test system: TALEN-A-FokI wild-type (MBP fusion) (Flavobacterium okeanokoites (FokI domain)); conditions: E. coli B2P, 0.1 mM IPTG 15 min 37 C
[8] = test system: TALEN-A-FokI M49 (MBP fusion) (Flavobacterium okeanokoites (FokI domain)); conditions: E. coli B2P, 0.1 mM IPTG 15 min 37 C
[9] = test system: TALEN-A-FokI M48 (MBP fusion) (Flavobacterium okeanokoites (FokI domain)); conditions: E. coli B2P, 0.1 mM IPTG 15 min 37 C
[10] = test system: GFP_TALEN(L)-FokI M47 (Flavobacterium okeanokoites (FokI domain)); conditions: SSA reporter HEK293T, pair; value in figure only
[11] = test system: GFP_TALEN(L)-FokI M50 (Flavobacterium okeanokoites (FokI domain)); conditions: SSA reporter HEK293T, pair; value in figure only
[12] = test system: GFP_TALEN(L)-FokI M48 (Flavobacterium okeanokoites (FokI domain)); conditions: SSA reporter HEK293T, pair; value in figure only
[13] = test system: GFP_TALEN(L)-FokI M49 (Flavobacterium okeanokoites (FokI domain)); conditions: SSA reporter HEK293T, pair; value in figure only
[14] = test system: B2M_TALEN(L)-FokI M49 (Flavobacterium okeanokoites (FokI domain)); conditions: SSA reporter HEK293T, pair; value in figure only
[15] = test system: B2M_TALEN(L)-FokI M47 (Flavobacterium okeanokoites (FokI domain)); conditions: SSA reporter HEK293T, pair; value in figure only
[16] = test system: B2M_TALEN(L)-FokI M48 (Flavobacterium okeanokoites (FokI domain)); conditions: SSA reporter HEK293T, pair; value in figure only
[17] = test system: B2M_TALEN(L)-FokI M50 (Flavobacterium okeanokoites (FokI domain)); conditions: SSA reporter HEK293T, pair; value in figure only
[18] = test system: GFP_PPR(R)-FokI M50 (Flavobacterium okeanokoites (FokI domain)); conditions: Fn reporter HEK293T, paired with GFP_PPR(L)
[19] = test system: B2M_TALEN(R)-FokI M48 (Flavobacterium okeanokoites (FokI domain)); conditions: SSA reporter HEK293T, pair; value in figure only
[20] = test system: B2M_TALEN(R)-FokI M50 (Flavobacterium okeanokoites (FokI domain)); conditions: SSA reporter HEK293T, pair; value in figure only
[21] = test system: B2M_TALEN(R)-FokI M49 (Flavobacterium okeanokoites (FokI domain)); conditions: SSA reporter HEK293T, pair; value in figure only
[22] = test system: B2M_TALEN(R)-FokI M47 (Flavobacterium okeanokoites (FokI domain)); conditions: SSA reporter HEK293T, pair; value in figure only
[23] = test system: GFP_TALEN(R)-FokI M50 (Flavobacterium okeanokoites (FokI domain)); conditions: SSA reporter HEK293T, pair; value in figure only
[24] = test system: GFP_TALEN(R)-FokI M48 (Flavobacterium okeanokoites (FokI domain)); conditions: SSA reporter HEK293T, pair; value in figure only
[25] = test system: GFP_TALEN(R)-FokI M49 (Flavobacterium okeanokoites (FokI domain)); conditions: SSA reporter HEK293T, pair; value in figure only
[26] = test system: GFP_TALEN(R)-FokI M47 (Flavobacterium okeanokoites (FokI domain)); conditions: SSA reporter HEK293T, pair; value in figure only

**Q.** With “AATGGAAAGTCAAA (double strand) [B2M_PPR(L) half-site]” as the sequence, how does the activity (fold vs WT FokI) [1] read?
**A.** 2.2

**Q.** For “ACGACTTCTTCAAGT (double strand) [GFP_PPR(L) half-site]”, which activity (fold vs WT FokI) [2] is on record?
**A.** 1.5

**Q.** With “AGCAATTCAGGAAA (double strand) [B2M_PPR(R) half-site]” as the sequence, how does the activity (fold vs WT FokI) [3] read?
**A.** 2.2

**Q.** Which activity [4] does the source give for “AGCCGAAATCATCGCAGCCGCTGCCGCGAGCTCCTGCGATGATTTCGGCT (double strand) [TALEN-A target site (inverted repeat)]” here?
**A.** 29 % survival

**Q.** And the activity [5]?
**A.** 28 % survival

**Q.** What about the activity [6] of the same sequence?
**A.** < 0.05 % survival

**Q.** And the activity [7]?
**A.** 0.0001 % survival

**Q.** What about the activity [8] of the same sequence?
**A.** 45 % survival

**Q.** And the activity [9]?
**A.** 37 % survival

**Q.** Which activity (fold vs WT FokI) [10] does the source give for “CAGCGTGTCCGGCGA (double strand) [GFP_TALEN(L) half-site]” here?
**A.** > 1

**Q.** And the activity (fold vs WT FokI) [11]?
**A.** > 1

**Q.** And the activity (fold vs WT FokI) [12]?
**A.** > 1

**Q.** What about the activity (fold vs WT FokI) [13] of the same sequence?
**A.** > 1

**Q.** Which activity (fold vs WT FokI) [14] does the source give for “CCAAAGATTCAGGT (double strand) [B2M_TALEN(L) half-site]” here?
**A.** > 1

**Q.** What about the activity (fold vs WT FokI) [15] of the same sequence?
**A.** > 1

**Q.** And the activity (fold vs WT FokI) [16]?
**A.** > 1

**Q.** What about the activity (fold vs WT FokI) [17] of the same sequence?
**A.** > 1

**Q.** With “CCTGGACGTAGCCTT (double strand) [GFP_PPR(R) half-site]” as the sequence, how does the activity (fold vs WT FokI) [18] read?
**A.** 1.5

**Q.** What does the source list for “GACTTTCCATTCTC (double strand) [B2M_TALEN(R) half-site]”?
**A.** activity (fold vs WT FokI) [19]: > 1; activity (fold vs WT FokI) [20]: > 1; activity (fold vs WT FokI) [21]: > 1; activity (fold vs WT FokI) [22]: > 1

**Q.** For “TTGCCGTAGGTGGCA (double strand) [GFP_TALEN(R) half-site]”, which activity (fold vs WT FokI) [23] is on record?
**A.** > 1

**Q.** What about the activity (fold vs WT FokI) [24] of the same sequence?
**A.** > 1

**Q.** And the activity (fold vs WT FokI) [25]?
**A.** > 1

**Q.** What about the activity (fold vs WT FokI) [26] of the same sequence?
**A.** > 1
